{"source": "patent US20250002938A1", "about": "(FRANCIS CRICK INSTITUTE, published 2025)", "binders": {"B1": {"name": "AAV1 wildtype capsid (virus particle) (other)", "chain": "MAADGYLPDWLEDNLSEGIREWWDLKPGAPKPKANQQKQDDGRGLVLPGYKYLGPFNGLDKGEPVNAADAAALEHDKAYDQQLKAGDNPYLRYNHADAEFQERLQEDTSFGGNLGRAVFQAKKRVLEPLGLVEEGAKTAPGKKRPVEQSPQEPDSSSGIGKTGQQPAKKRLNFGQTGDSESVPDPQPLGEPPATPAAVGPTTMASGGGAPMADNNEGADGVGNASGNWHCDSTWLGDRVITTSTRTWALPTYNNHLYKQISSASTGASNDNHYFGYSTPWGYFDFNRFHCHFSPRDWQRLINNNWGFRPKRLNFKLFNIQVKEVTTNDGVTTIANNLTSTVQVFSDSEYQLPYVLGSAHQGCLPPFPADVFMIPQYGYLTLNNGSQAVGRSSFYCLEYFPSQMLRTGNNFTFSYTFEEVPFHSSYAHSQSLDRLMNPLIDQYLYYLNRTQNQSGSAQNKDLLFSRGSPAGMSVQPKNWLPGPCYRQQRVSKTKTDNNNSNFTWTGASKYNLNGRESIINPGTAMASHKDDEDKFFPMSGVMIFGKESAGASNTALDNVMITDEEEIKATNPVATERFGTVAVNFQSSSTDPATGDVHAMGALPGMVWQDRDVYLQGPIWAKIPHTDGHFHPSPLMGGFGLKNPPPQILIKNTPVPANPPAEFSATKFASFITQYSTGQVSVEIEWELQKENSKRWNPEVQYTSNYAKSANVDFTVDNNGLYTEPRPIGTRYLTRPL", "notes": "Assembled virus particle: 60 monomers of VP1, VP2 and VP3 at about 1:1:10; VP2 and VP3 are N-terminally shorter forms of the same entry; also called AAV1WT; AAV1 capsid"}, "B2": {"name": "superfolder GFP fused to PKD1(Ser356Cys) (other)", "chain": "SAGESVQITLPKNEVQLNAYVLQEPPKGETYTYDWQLITHPRDYCGEMEGKHSQILKLSKLTPGLYEFKVIVEGQNAHGEGYVNVTVKPE", "notes": "also called PKD1^S356C-derived AP; adaptor protein (38.2 kDa); not shown: superfolder GFP"}, "B3": {"name": "msfGFP fused to PKD2(Ser425Cys) (other)", "chain": "IAIVSPQFQEISLPTTCTVIDGSQSTDDDKIVQYHWEELKGPLREEKISEDTAILKLSKLVPGNYTFSLTVVDSDGATNSTTANLTVNKA", "notes": "also called monomeric variant of super folder GFP adaptor protein; not shown: monomeric variant of super folder GFP (msfGFP)"}, "B4": {"name": "sfGFP-PKD2(Ser425Cys) adaptor fusion protein (other)", "chain": "B3 chain", "notes": "On the virus it forms the AAV1(Asp590Cys)<>sfGFP CAR-V; also called PKD2Cys; sfGFP-PKD2(Ser425Cys) fusion polypeptide; not shown: superfolder GFP (sfGFP)"}, "B5": {"name": "sfGFP-PKD2 fusion protein (wild type PKD2) (other)", "chain": "B3 chain with C17S", "notes": "also called sfGFP-PKD2 adaptor protein; PKD2WT; not shown: superfolder GFP (sfGFP)"}, "B6": {"name": "PKD2(V480E) mutant (receptor)", "chain": "B3 chain with C17S, V72E", "notes": "also called PKD2(V480E) variant of AAVR; Val480Glu mutation"}, "B7": {"name": "superfolder GFP fused to PKD2(Ser425Cys-Val480Glu) (other)", "chain": "B3 chain with V72E", "notes": "also called sfGFP-PKD2(Ser425Cys-Val480Glu); not shown: superfolder GFP"}}, "key": {"[1]": {"biological_target": "T1, PKD2 domain of AAVR, wild type (Pongo abelii (Sumatran orangutan) …, UniProt Q5RFR6 409-498)", "T1 construct": "also called PKD2 wild type", "T1 sequence": "B3 chain with C17S", "experiment": "response-concentration plot on AAV1 capsid; method not named; PKD2 wild type"}, "[2]": {"biological_target": "B5", "experiment": "SPR; AAV1 virus amine-coupled on a CM3 chip, increasing concentrations of the fusion protein"}, "[3]": {"biological_target": "T2, AAV5(Gln697Cys) virus particle (AAV5)", "T2 construct": "Assembled particle of VP1, VP2 and VP3; also called AAV5^Q697C", "experiment": "anti-VP1/2/3 immunoblot of a non-reducing gel, coupling at 10 µM adaptor"}, "[4]": {"biological_target": "T3, AAV1(Asp590Cys) virus particle (AAV1)", "T3 construct": "Assembled particle of VP1, VP2 and VP3, all carrying the mutation; also called AAV1Cys; AAV1 Asp590Cys virions", "T3 chain": "B1 chain with D590C", "experiment": "non-reducing Coomassie SDS-PAGE, covalent coupling of the PKD2(Ser425Cys) fusion with AAV1 D590C"}, "[5]": {"biological_target": "T3, AAV1(Asp590Cys) virus particle", "experiment": "SDS-PAGE of the mixtures, non-reducing (top, bottom left) and reducing with βME (bottom right); shows disulfide-linked adducts only"}, "[6]": {"biological_target": "T4, AAV2 wildtype virus particle (AAV2, UniProt P03135 1-735)", "T4 construct": "Assembled particle of VP1, VP2 and VP3; The virus for SPR was commercially sourced; also called AAV2 wt", "experiment": "SPR; AAV2 virus amine-coupled on a CM3 chip, increasing concentrations of the fusion protein"}, "[7]": {"biological_target": "B1", "experiment": "response-concentration plot on AAV1 capsid; method not named; PKD2(V480E) mutant"}, "[8]": {"biological_target": "T5, AAV2(Gln589Cys) virus particle (AAV2, UniProt P03135 1-735)", "T5 construct": "Assembled particle of VP1, VP2 and VP3", "experiment": "anti-VP1/2/3 immunoblot of a non-reducing gel, coupling at 5 µM adaptor"}, "[9]": {"biological_target": "T3, AAV1(Asp590Cys) virus particle", "experiment": "anti-VP1/2/3 immunoblot of a non-reducing gel, coupling at 3 µM adaptor in 1 mM TCEP"}}, "note": "Substitutions are numbered along the chain they refer to. Names and notes keep the numbering of the source."}
{"binder": "B1", "values": [{"measurement": "Kd", "setting": "[1]", "result": 12.2, "unit": "µM"}, {"measurement": "Kd", "setting": "[2]", "result": "~2", "unit": "µM"}]}
{"binder": "B2", "values": [{"measurement": "binding result", "setting": "[3]", "result": "binds"}]}
{"binder": "B3", "values": [{"measurement": "binding result", "setting": "[4]", "result": "binds"}]}
{"binder": "B4", "values": [{"measurement": "binding result", "setting": "[5]", "result": "binds"}]}
{"binder": "B5", "values": [{"measurement": "Kd", "setting": "[6]", "result": "~6", "unit": "µM"}]}
{"binder": "B6", "values": [{"measurement": "Kd", "setting": "[7]", "result": 6.13, "unit": "µM"}]}
{"binder": "B7", "values": [{"measurement": "binding result", "setting": "[8]", "result": "binds"}, {"measurement": "binding result", "setting": "[9]", "result": "binds"}]}
